From patent US20060110769A1 (Bayer, published 2006)

Molecular target: mouse hypoxia inducible factor-2 alpha (mouse, UniProt P97481 1-874)
Assay: cell-based or functional assay

mouse hypoxia inducible factor-2 alpha, sequence (P97481 whole entry): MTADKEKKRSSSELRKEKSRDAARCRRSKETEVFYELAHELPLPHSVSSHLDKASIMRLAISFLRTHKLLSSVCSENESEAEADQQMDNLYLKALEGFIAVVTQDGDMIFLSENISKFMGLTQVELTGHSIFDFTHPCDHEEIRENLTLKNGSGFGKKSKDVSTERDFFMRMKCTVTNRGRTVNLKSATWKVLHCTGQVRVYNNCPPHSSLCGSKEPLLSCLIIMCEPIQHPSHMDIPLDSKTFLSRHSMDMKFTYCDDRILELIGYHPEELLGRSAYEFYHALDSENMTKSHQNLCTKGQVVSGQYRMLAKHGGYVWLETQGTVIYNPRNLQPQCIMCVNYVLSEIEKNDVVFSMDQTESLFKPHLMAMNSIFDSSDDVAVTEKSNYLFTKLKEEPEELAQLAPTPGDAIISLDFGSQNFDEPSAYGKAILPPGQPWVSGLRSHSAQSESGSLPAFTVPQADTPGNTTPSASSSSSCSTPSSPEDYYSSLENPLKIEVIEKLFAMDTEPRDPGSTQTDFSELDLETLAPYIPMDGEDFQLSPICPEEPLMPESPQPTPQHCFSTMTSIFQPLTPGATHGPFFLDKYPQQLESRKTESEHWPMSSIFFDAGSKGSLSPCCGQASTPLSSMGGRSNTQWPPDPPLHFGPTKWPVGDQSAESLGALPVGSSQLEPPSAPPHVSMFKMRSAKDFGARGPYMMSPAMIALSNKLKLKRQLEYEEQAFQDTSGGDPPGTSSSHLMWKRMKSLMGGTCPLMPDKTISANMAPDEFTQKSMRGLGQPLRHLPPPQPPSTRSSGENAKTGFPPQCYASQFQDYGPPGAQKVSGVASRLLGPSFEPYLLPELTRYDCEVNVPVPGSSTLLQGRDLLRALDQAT

activity of HIF-2 alpha on the hypoxia responsive reporter gene construct (equal amounts of each plasmid); activity of PH-2 relative to EGLN3: 2 fold less active than EGLN3
B1: human prolyl 4-hydroxylase PH-2 (enzyme)
chain: MAAAAVTGQRPETAAAEEASRPQWAPPDHCQAQAAAGLGDGEDAPVRPLCKPRGICSRAYFLVLMVFVHLYLGNVLALLLFVHYSNGDESSDPGPQHRAQGPGPEPTLGPLTRLEGIKVGHERKVQLVTDRDHFIRTLSLKPLLFEIPGFLTDEECRLIIHLAQMKGLQRSQILPTEEYEEAMSTMQVSQLDLFRLLDQNRDGHLQLREVLAQTRLGNGWWMTPESIQEMYAAIKADPDADGVLSLQEFSNMDLRDFHKYMRSHKAESSELVRNSHHTWLYQGEGAHHIMRAIRQRVLRLTRLSPEIVELSEPLQVVRYGEGGHYHAHVDSGPVYPETICSHTKLVANESVPFETSCRYMTVLFYLNNVTGGGETVFPVADNRTYDEMSLIQDDVDLRDTRRHCDKGNLRVKPQQGTAVFWYNYLPDGQGWVGDVDDYSLHGGCLVTRGTKWIANNWINVDPSRARQALFQQEMARLAREGGTDSQPEWALDRAYRDARVEL
